Reference: publication PMC6970277

Test system: DosR (His6-DosR, pre-phosphorylated with acetyl phosphate) (Mycobacterium tuberculosis)
Assay: EMSA

hspX promoter probe showed a binding signal (fold inhibition of binding vs DMSO) of 22.
